# According to patent publication US6670161B1, “Compositions and methods for template-dependent enzymatic synthesis of nucleic acid” (The Board of Trustees of the Leland Stanford Jr. University, priority 1991, dated 2003):
# Like-named read-outs stand apart in the source and are kept apart here.
# B1: Single subunit recombinant Pol α: recombinant human DNA polymerase α catalytic polypeptide (180 kDa) immunopurified from AcHDPα infected Sf9 cells (protein)
# chain: MAPVHGDDSLSDSGSFVSSRARREKKSKKGRQEALERLKKAKAGEKYKYEVEDFTGVYEEVDEEQYSKLVQARQDDDWIVDDDGIGYVEDGREIFDDDLEDDALDADEKGKDGKARNKDKRNVKKLAVTKPNNIKSMFIACAGKKTADKAVDLSKDGLLGDILQDLNTETPQITPPPVMILKKKRSIGASPNPFSVHTATAVPSGKIASPVSRKEPPLTPVPLKRAEFAGDDVQVESTEEEQESGAMEFEDGDFDEPMEVEEVDLEPMAAKAWDKESEPAEEVKQEADSGKGTVSYLGSFLPDVSCWDIDQEGDSSFSVQEVQVDSSHLPLVKGADEEQVFHFYWLDAYEDQYNQPGVVFLFGKVWIESAETHVSCCVMVKNIERTLYFLPREMKIDLNTGKETGTPISMKDVYEEFDEKIATKYKIMKFKSKPVEKNYAFEIPDVPEKSEYLEVKYSAEMPQLPQDLKGETFSHVFGTNTSSLELFLMNRKIKGPCWLEVKSPQLLNQPVSWCKVEAMALKPDLVNVIKDVSPPPLVVMAFSMKTMQNAKNHQNEIIAMAALVHHSFALDKAAPKPPFQSHFCVVSKPKDCIFPYAFKEVIEKKNVKVEVAATERTLLGFFLAKVHKIDPDIIVGHNIYGFELEVLLQRINVCKAPHWSKIGRLKRSNMPKLGGRSGFGERNATCGRMICDVEISAKELIRCKSYHLSELVQQILKTERVVIPMENIQNMYSESSQLLYLLEHTWKDAKFILQIMCELNVLPLALQITNIAGNIMSRTLMGGRSERNEFLLLHAFYENNYIVPDKQIFRKPQQKLGDEDEEIDGDTNKYKKGRKKAAYAGGLVLDPKVGFYDKFILLLDFNSLYPSIIQEFNICFTTVQRVASEAQKVTEDGEQEQIPELPDPSLEMGILPREIRKLVERRKQVKQLMKQQDLNPDLILQYDIRQKALKLTANSMYGCLGFSYSRFYAKPLAALVTYKGREILMHTKEMVQKMNLEVIYGDTDSIMINTNSTNLEEVFKLGNKVKSEVNKLYKLLEIDIDGVFKSLLLLKKKKYAALVVEPTSDGNYVTKQELKGLDIVRRDWCDLAKDTGNFVIGQILSDQSRDTIVENIQKRLIEIGENVLNGSVPVSQFEINKALTKDPQDYPDKKSLPHVHVALWINSQGGRKVKAGDTVSYVICQDGSNLTASQRAYAPEQLQKQDNLTIDTQYYLAQQIHPVVARICEPIDGIDAVLIATWLGLDPTQFRVHHYHKDEENDALLGGPAQLTDEEKYRDCERFKCPCPTCGTENIYDNVFDGSGTDMEPSLYRCSNIDCKASPLTFTVQLSNKLIMDIRRFIKKYYDGWLICEEPTCRNRTRHLPLQFSRTGPLCPACMKATLQPEYSDKSLYTQLCFYRYIFDAECALEKLTTDHEKDKLKKQFFTPKVLQDYRKLKNTAEQFLSRSGYSEVNLSKLFAGCAVKS
# Experiments:
# [1] = test system: matched 24 mer or mismatched 29 mer annealed to M13mp18 single stranded DNA; experiment: Proofreading exonuclease assay on primed M13mp18; format: biochemical; conditions: up to 30 minutes at 37° C.
# Method: Proofreading exonuclease activity of the recombinant single subunit poymerase α was assayed with a singly primed M13mp18 template (SEQ ID NO:5), primed either with a matched 24 mer (SEQ ID NO:4) (FIG. 8B) or a mismatched 29 mer (SEQ ID NO:2) (FIG. 8A), each ^32P-labeled at the 5′ end by T4 polynucleotide kinase. The mismatched 29 mer (SEQ ID NO:2) contains 9 mismatched T's on the 3′ terminus. Correct proofreading of this 29 mer (SEQ ID NO:2) annealed to M13mp18 (SEQ ID NO:3) would produce a 20 mer in the absence of deoxynucleotide triphosphates (dNTPs).
# To perform the assay, two oligonucleotides, the universal primer, a 24 mer (matched primer) and RD29 mer (mismatched primer), were 5′-end labeled with ^32P-ATP and annealed to M13mp18 single stranded template. 0.1 pmole of this primed M13 was incubated in 20 mM Tris.HCl, pH 7.5, 10 mM MgCl2, 20 mM KCl and 2 mM dithiothreitol at 37° C. in the presence of polymerase in a final volume of 12 μl. Aliquots of 3 μl each were removed at 0, 2.5, 10 and 30 minutes into an equal volume of deionized formamide containing 1 mM EDTA, 0.1% xylene cyanol and 0.1% bromophenol blue and placed on ice. After heating at 95° C. for 5 minutes, one-half of the sample was loaded onto an 18% polyacrylamide, 7 M urea, Tris-borate-EDTA gel. […]
# [2] = test system: lacZ α-complementing gene in M13mp2 DNA; experiment: DNA synthetic fidelity, minus-one frame-shift reversion assay; format: biochemical
# Method: (§1) DNA Synthetic Fidelity. The fidelity of the single catalytic subunit and the four subunit polymerase α/primase was measured and compared. Three methods were used to measure a single round of gap filling synthesis within the lacZ α-complementing gene in M13mp2 DNA. See T. A. Kunkel et al. Mol. Cell. Biol. 9:4447 (1989). In all three assays, a gapped, double-stranded M13mp2 DNA is constructed which contains a single-stranded gap as the mutation target. The three assays are: (A) forward mutation assay, (B) opal codon reversion assay, and (C) assay for −1 base frame-shift.
# (§2) The DNA synthetic mutational frequency and the error rate of the two forms of DNA polymerase α measured by these three methods are summarized in Table III. […] The DNA synthetic fidelity values obtained are also in agreement with the values previously determined for the four subunit polymerase α.
# [3] = test system: lacZ α-complementing gene in M13mp2 DNA; experiment: DNA synthetic fidelity, base-substitution (opal codon) reversion assay; format: biochemical
# Method: as §1, §2
# [4] = test system: lacZ α-complementing gene in M13mp2 DNA; experiment: DNA synthetic fidelity, forward mutation assay; format: biochemical; conditions: light blue and colorless plaques
# Method: as §1, §2
# [5] = Thermostability: preincubation at 37° C. before assaying polymerase activity; format: physicochemical
# Method: Thermosensitivity. The thermostability of the two forms of polymerase α was also compared; this was done by preincubation at 37° C. for various times before assaying polymerase activity. […] (data not shown). These decreases in polymerase activity was not due to proteolysis of the polymerase protein.
# oligo(dT)12: poly(dA)290 = experiment: Km for primer terminus; format: biochemical; conditions: oligo(dT)12: poly(dA)290, 2 mM MgCl2, 50 μM dTTP
# Method: (§3) The standard assay for DNA polymerase α with gapped DNA was performed according to P. A. Fisher and D. Korn, J. Biol. Chem 252:6528 1977). Reactions were performed using optimally gapped salmon sperm DNA in 20 mM Tris.HCl, pH 8.0, 2 mM β-mercaptoethanol (“βME”), 200 μg/ml BSA, 10 mM MgCl2, 50 μM dNTP's with [α-^32P]dATP as the label. One unit of DNA polymerase is defined as the amount of polymerase that incorporates 1 nmole of labeled dNTP into acid-insoluble DNA at 37° C. in 60 min. […] All Kinetic parameters were calculated from Lineweaver-Burk plots by the method of least squares. Km was calculated of the basis of 3′-OH primer termini.
# [6] = test system: optimally gapped salmon sperm DNA, dNTP's; experiment: Kinetic parameters of DNA polymerase α on gapped DNA (Lineweaver-Burk); format: biochemical; conditions: for Km: gapped salmon sperm DNA
# From the text: Characterization of Affinity. The four subunit-DNA polymerase α/primase complex was purified from human KB cells as described T. Wang et al., J. Biol. Chem. 259:1854 (1984) and used for comparison to the single polypeptide recombinant polymerase α for their respective affinities for dNTP, primer-terminus, and gapped DNA. Prior to the comparison, both the immunopurified recombinant single subunit-polymerase α and the four subunit-polymerase α/primase complex were stored in buffer containing 30% sucrose, 20% ethylene glycol, 50 mM Tris HCL, pH 8.6, 1 mM βME, 1 mM EDTA at −80° C. or stored on packed ice at 4° C.
# as §3
# The rate of catalysis of these two forms was also measured. The Kcat values determined for the two forms of polymerase α are of a similar order of magnitude.
molecule,measurement,setting,value
B1,3′-5′ exonuclease activity on matched and mismatched primer-template,[1],no apparent 3′-5′ exonuclease was detected
same,Error rate,[2],1/1800
same,Mutant frequency,[2]; blue plaques,170 ×10^−5
same,Error rate,[3],1/4900
same,Mutant frequency,[3]; blue plaques,370 ×10^−6
same,Mutant frequency,[4],300 ×10^−4
same,"Thermostability, % activity after 30 min at 37° C.",[5],68%
same,Km,oligo(dT)12: poly(dA)290,0.4 µM
same,Kcat,[6],1.6 s⁻¹
same,Km,"[6]; 10 mM MgCl2, pH 8.0, read-out: Km (dNTP)",1.2 µM
same,Km,[6]; read-out: Km (DNA in nucleotide),190 µM
